T1: human DKK1 antigen (Sino Biological, 10170-H08H) (human, UniProt O94907 32-266)
T1 construct: also called huDKK1; hDKK1
T1 sequence (looked up): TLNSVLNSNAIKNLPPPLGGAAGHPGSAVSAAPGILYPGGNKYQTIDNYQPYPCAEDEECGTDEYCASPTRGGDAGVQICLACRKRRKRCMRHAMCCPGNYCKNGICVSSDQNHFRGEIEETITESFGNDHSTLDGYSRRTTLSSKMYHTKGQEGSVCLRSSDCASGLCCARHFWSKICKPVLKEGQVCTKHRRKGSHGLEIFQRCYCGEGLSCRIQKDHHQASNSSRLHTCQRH

T2: human DKK1 antigen (Sino Biological, 10170-H08H) (human, UniProt O94907 32-266)
T2 chain: T1 sequence (looked up)

B1: hybridoma antibody 7M2.6 (antibody, V domains shown)
VH: EVQLQQSGPELVKPGASVRISCKTSGYTFTEYTMHWVKQSHGKSLEWIGVIDPSNGDTSYNQKFKGRATLTVDKSSSTAYMDLRSLTSEDSALYYCSSTTGPWFACWGQGTLVTVSA
VL: DIQMTQTTSSLSASLGDRVTINCRASQDISNYLNWYQQKPDGTVKLLIYYKSRLHSGVPTRFSGSGSGTDFSLTISNLVQEDIATYFCQQVHTLPPTFGGGTKLEIK
notes: Murine hybridoma antibody
B2: hybridoma antibody 19O15.6 (antibody, V domains shown)
VH: QIQLVQSGPELKKPGETVKISCKASGYTFTNHGMNWVKQAPGKGLKWMGWINTNTGEPTYADDFKGRFAFSLETSASTAYLQINNLKNEDTATYFCARRGYGFPYYYTMDYWGQGTSVTVSS
VL: QAVVTQESALTTSPGETVTLTCRSSTGAVTTRNYANWVQEKADHLLTGLIGGTKNRAPGVPARFSGSLIGDKAALTITGAQTEDEAKYFCALWYSNRLVFGGGTKLTVL
notes: Murine hybridoma antibody
B3: hybridoma antibody 18J21.1 (antibody, V domains shown)
VH: QVQLKQSGPGLVQPSQSLSITCTVSGFSLTAFDVHWVRQSPGKGLEWLGVIWIGGTTDYNGAFISRLSISKDNSKSQVFFKMNSLQAKDTAIYYCARKRGNYYNMDYWGQGTSVTVAS
VL: B2 VL with A28T, R32T, A42P, L46F, K54N, K87I, R97H, L98W
notes: Murine hybridoma antibody
B4: hybridoma antibody 17F14.3 (antibody, V domains shown)
VH: QVQLQQPGAELVKPGASVKMSCKASGYTFTSYNMLWVKQTPGQGLEWIGVIFPGNGDTSYNPKFKGKAALTADKSSSTAYMQLSSLTSEDSAVYYCARDGYPSMDYWGQGTSVTVSS
VL: ETIVTQSPASLSVATGEKVTIRCITSTDIDDDMNWYQQKPGEPPKLLISEGNSLRPGVPSRFSSSGYGTDFVFTIENTLSEDVADYYCLQFNNMPLTFGAGTKLELK
notes: Murine hybridoma antibody
B5: hybridoma antibody 11I18.4 (antibody, V domains shown)
VH: EVQLQQSGPELVKPGASVKIFCKTSGYTFTENTMHWVKQTHGKSLEWIGGINPHKGGTSYNQKFKGKATLTVDKSSSTACMELRSLTSEDSTVYYCARDWLGAMDYWGQGTSVTVSP
VL: ETTVTQSPASLSMAIGEKVTIRCITSTDIDDDMNWYQQKPGEPPKLLISEGNTLRPGVPSRFSSSGYGTDFVFTIENMLSEDVADYYCLQSDNLPYTFGGGTKLEIK
notes: Murine hybridoma antibody
B6: humanized antibody hu64 (antibody, V domains shown)
VH: QVQLVQSGAEVKKPGSSVKVSCKASGYTFTSYNMLWVRQAPGQGLEWMGVIFPGNGDTSYNPKFKGRVTLTADKSSSTAYMELSSLRSEDTAVYYCARDGYPSMDYWGQGTLVTVSS
VL: DTQLTQSPSFLSASVGDRVTITCITSTDIDDDMNWYQQKPGKAPKLLISEGNSLRPGVPSRFSSSGSGTEFTLTISSLQPEDFATYYCLQFNNMPLTFGQGTKLEIKR
B7: humanized antibody hu52 (antibody, V domains shown)
VH: B6 VH with S16A, G44R
VL: B6 VL
B8: humanized antibody hu50 (antibody, V domains shown)
VH: B6 VH with S16A, G44R
VL: B6 VL with T2I, L4M, F10S, L11V, S64G, E70D
B9: humanized antibody hu2 (antibody, V domains shown)
VH: EVQLLQSAAEVKRPGESLRISCKTSGYTFTEYTMHWVRQMPGKELEWMGVIDPSNGDTSYNQKFKGHVTISADKSSSTAYLQWSSLKASDAAMYYCSSTTGPWFASWGQGTLVTVSS
VL: DIQMTQSPSSLSASVGDRVTITCRASQDISNYLNWYQQKPGKAPKLLIYYKSRLHSGVPSRFSGSGSGTDFTLTISSLQPEDFATYYCQQVHTLPPTFGQGTKLEIKR
B10: humanized antibody hu3 (antibody, V domains shown)
VH: B9 VH
VL: EIVMTQSPPTLSLSPGERVTLSCRASQDISNYLNWYQQKPGQAPRLLIYYKSRLHSGIPARFSGSGSGTDFTLTISSLQPEDFAVYYCQQVHTLPPTFGQGTKLEIKR
B11: BHQ-880 (antibody, V domains shown)
VH: QVQLVESGGGLVQPGGSLRLSCAASGFTFSSYWMSWVRQAPGKGLEWVSGISYSGSNTHYADSVKGRFTISRDNSKNTLYLQMNSLRAEDTAVYYCARMGIDLDYWGQGTLVTVSS
VL: DIALTQPASVSGSPGQSITISCTGTSSDVGGFNYVSWYQQHPGKAPKLMIHDGSNRPSGVSNRFSGSKSGNTASLTISGLQAEDEADYYCQSWDVSPITAVFGGGTKLTVLG
B12: chi-2 (antibody, V domains shown)
VH: B5 VH
VL: MSSAQFLGLLLLCFQGTRCDIQMTQTTSSLSASLGDRVTINCRASQDISNYLNWYQQKPDGTVKLLIYYKSRLHSGVPTRFSGSGSGTDFSLTISNLVQEDIATYFCQQVHTLPPTFGGGTKLEIK
B13: chi-29 (antibody, V domains shown)
VH: B3 VH
VL: SQAVVTQESALTTSPGETVTLTCRSSTGTVTTTNYANWVQEKPDHLFTGLIGGTNNRAPGVPARFSGSLIGDKAALTITGAQTEDEAIYFCALWYSNHWVFGGGTKLTVL
B14: chi-22 (antibody, V domains shown)
VH: QVTLKESGPGILQPSQTLSLTCSFSGFSLSTSGMGVGWIRQPSGKGLEWLAHIWWDDVKRYNPALKSRLTISKDTSSSQVFLKIASVDTTDTASYYCSRIARSPTGFAYWGQGTL
VL: QIVLTQSPVIMSASPGEKVTMTCSASSSVSYMYWYQQKPGSSPRLLIYDTSNLASGVPVRFSGSGSGTSYSLTISRMEAEDAATYYCQQWSSYPPALTFGAGTKLELK

These results are taken from US20250122271A1, “ANTI-DKK1 ANTIBODY, PHARMACEUTICAL COMPOSITION THEREOF, AND USE THEREOF” (SHANGHAI JUNSHI BIOSCIENCES CO., LTD., priority 2022, published 2025).

Positions count from the first letter of the chain named.

For the first assay, the target named is T1, human DKK1 antigen (Sino Biological, …). Put plainly: competitive ELISA against LRP6 for DKK1.
For the molecule B1, the binding result is reported as “binds”. On the same count and under the same terms, for B2 the value was “binds”; for B3, “binds”; for B4, “binds”.

Turning to B5, the binding result is on record as “binds”.

Another assay addresses T2, human DKK1 antigen (Sino Biological, …). Put plainly: ELISA blocking of DKK1-LRP6.
As to B6, the midpoint of inhibition, the IC50, lay at 0.176 µg/mL.

As for B7, half-maximal inhibition (IC50) was put at 0.155 µg/mL. The same measure, in the same setting: for B8 the value was 0.239 µg/mL; for B9, 0.193 µg/mL. The same measure, in the same setting: for B10 the value was 0.169 µg/mL.

The target is the same in another assay. As to the kind of experiment: ELISA binding. (In general: An ELISA detects its analyte on a solid surface through an enzyme-linked reagent.)
For B6, the EC50 – broadly, the concentration at which the effect is half-maximal – amounted to 0.0222 µg/mL. Same read-out and setting: the figure for B7 is 0.0238 µg/mL; for B8 it is 0.0234 µg/mL; for B9 it is 0.01 µg/mL.

In turn, B10 returned an EC50 of 0.0138 µg/mL.

The target is the same in a further assay. Put plainly: ELISA blocking of DKK1-LRP6. This is another data set of the same source.
As to B1, the IC50 (in general, the concentration that inhibits the measured activity by half) is 0.892 µg/mL. On to B2, for which the 50% inhibitory concentration (IC50) is about 10.1 µg/mL. On the same count and under the same terms, for B4 the value was 0.529 µg/mL; for B5, 0.459 µg/mL.

With B11, half-maximal inhibition (IC50) required 1.1 µg/mL.

For the next assay the target is unchanged. As to the kind of experiment: ELISA blocking of DKK1-LRP6. The source holds these as a separate data set.
Consider B12, for which half-maximal inhibition (IC50) required 1.79 µg/mL. The same measure, in the same setting: for B13 the value was 1.43 µg/mL; for B14, about 0.246 µg/mL.
